Residue numbers refer to the chain shown, from its start.
Legend:
[1] = molecular target: T1, hEGFR-Fc (EGFR extracellular fusion antigen, Cat #344-ER-050, Bio-techne) (human, UniProt P00533 25-645); assay: ELISA, coated hEGFR-Fc (FIG. 18A)
T1 construct: extracellular domain; Bought reagent; also called human EGFR antigen; extracellular domain of hEGFR; not shown: Fc part of the bought fusion
Description: (§1) The EGFR antigens hEGFR-Fc (Cat #344-ER-050, Bio-techne) and rhesus EGFR-Fc (Cat #EGR-05252, Acro Biosystems)) were diluted to a 0.05 ug/ml concentration in PBS. Human CD3epsilon (hCD3epsilon-His (Cat #10977-H08S, Sino Biological) and cynomolgus CD3epsilon (Cat #CDE-05226, Acro Biosystems)) were diluted to a 0.01 ug/ml concentration in PBS. ELISA plate (Cat #9018, Corning) wells were filled with 100 ul of antigen suspension. Plates were incubated overnight at 4° C. Wells were blocked with 250 ul 1% BSA in PBST for 1 hr at 37° C. and then washed four times with PBST. All washes were done using Biotek (Elx 405). All construct antibodies were diluted to 15 ug/ml and prepared with 3-fold serial dilutions (12 points, including 0 ug/ml). 100 ul/well of diluted antibody construct solution was added to plate and incubated for 1 hr at 37° C. Plates were washed four times with PBST, then 100 ul/well of anti-human kappa light chain-HRP antibody (1:10000) was added and incubated for 0.5 hr at 37° C. Wells were washed 4 times with PBST, then 100 ul/well of TMB substrate was added and plates were incubated at RT for 5 min. 100 ul/well of 1.0 N HCl was added to terminate the reaction. Plates were read using ELISA plate reader at 450 nm wavelength (SpectraMax M5e). Data Analysis was performed using Graphpad Prism 5 software by using nonlinear regression (curve fit): log (agonist) vs. response, agonist is antibody concentration (nM) and response is OD value.

[2] = molecular target: T2, rhesus EGFR-Fc (rhesus EGFR extracellular fusion antigen, Cat #EGR-05252, Acro Biosystems) (rhesus, UniProt P55245 25-645); assay: ELISA, coated rhesus EGFR-Fc (FIG. 18B)
T2 construct: extracellular domain; Bought reagent; also called rhesus EGFR antigen; extracellular domain of rhesus EGFR; not shown: Fc part of the bought fusion
Description: as §1

[3] = molecular target: T3, cyno CD3epsilon-His (cynomolgus CD3epsilon extracellular fusion antigen, Cat #CDE-05226, Acro Biosystems) (cynomolgus, UniProt Q95LI5 22-117); assay: ELISA, coated cyno CD3epsilon-His (FIG. 19B)
T3 construct: extracellular domain; Bought reagent; also called cyno CD3e antigen; not shown: His tag
T3 sequence (looked up): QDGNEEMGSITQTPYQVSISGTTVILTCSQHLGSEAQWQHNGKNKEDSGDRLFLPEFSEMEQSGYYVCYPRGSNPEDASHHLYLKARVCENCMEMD
Description: as §1

[4] = molecular target: T4, human CD3epsilon-His (human CD3epsilon extracellular fusion antigen, Cat #10977-H08S, Sino Biological) (human, UniProt P07766 22-126); assay: ELISA, coated human CD3epsilon-His (FIG. 19A)
T4 construct: Bought reagent; also called hCD3epsilon-His; hCD3epsilon; not shown: His tag
Description: as §1

[5] = molecular target: T5, human CD3epsilon on Jurkat cells (human, UniProt P07766 22-207); assay: FACS on Jurkat cells (FIG. 25)
T5 construct: Endogenous CD3epsilon on Jurkat T cells, within the CD3/TCR complex; also called Jurkat Cells (Human CD3e); human-CD3e expressing Jurkat cells

Measured: binding result

B1: Construct 1: Tri-Specific variable light chain-variable heavy chain (VLVH), anti-CD3epsilon Fab with two anti-EGFR scFv (VL-VH), no regulatory domains (bispecific antibody)
heavy: GGSGGSEVQLVESGGGLVQPGGSLRLSCAASGFTFNTYAMNWVRQAPGKGLEWVARIRSKYNNYATYYADSVKDRFTISRDDSKNTLYLQMNSLRAEDTAVYYCVRHGNFGNSYVSWFAYWGQGTMVTVSSASTKGPSVFPLAPSSKSTSGGTAALGCLVKDYFPEPVTVSWNSGALTSGVHTFPAVLQSSGLYSLSSVVTVPSSSLGTQTYICNVNHKPSNTKVDKRVEPKSCPPCGGGGSDIQMTQSPSSLSASVGDRVTITCQASQDISNYLNWYQQKPGKAPKLLIYDASNLETGVPSRFSGSGSGTDFTFTISSLQPEDIATYFCQHFDHLPLAFGGGTKVEIKGGGGSGGGGSGGGGSQVQLQESGPGLVKPSETLSLTCTVSGGSVSSGDYYWTWIRQSPGKGLEWIGHIYYSGNTNYNPSLKSRLTISIDTSKTQFSLKLSSVTAADTAIYYCVRDRVTGAFDIWGQGTMVTVSS
light: GGSGGSQAVVTQEPSLTVSPGGTVTLTCRSSTGAVTTSNYANWVQQKPGQAPRGLIGGTNKRAPGTPARFSGSLLGGKAALTLSGVQPEDEAEYYCALWYSNLWVFGGGTKLTVLGQPKAAPSVTLFPPSSEELQANKATLVCLISDFYPGAVTVAWKADSSPVKAGVETTTPSKQSNNKYAASSYLSLTPEQWKSHRSYSCQVTHEGSTVEKTVAPTECPPCSGGGSDIQMTQSPSSLSASVGDRVTITCQASQDISNYLNWYQQKPGKAPKLLIYDASNLETGVPSRFSGSGSGTDFTFTISSLQPEDIATYFCQHFDHLPLAFGGGTKVEIKGGGGSGGGGSGGGGSQVQLQESGPGLVKPSETLSLTCTVSGGSVSSGDYYWTWIRQSPGKGLEWIGHIYYSGNTNYNPSLKSRLTISIDTSKTQFSLKLSSVTAADTAIYYCVRDRVTGAFDIWGQGTMVTVSS
notes: Heterodimer of one HC and one LC polypeptide (about 100 kDa), no Fc; also called TriBody (VLVH); Tribody EGFR (VL-VH)
not listed: [5]
binds: all other assays above

B2: Construct 3: Precursor Tri-Specific Variable Light-Variable Heavy (VLVH), anti-CD3epsilon Fab, two anti-EGFR scFv, HSA and CAP regulatory domains linked by … (bispecific antibody)
heavy: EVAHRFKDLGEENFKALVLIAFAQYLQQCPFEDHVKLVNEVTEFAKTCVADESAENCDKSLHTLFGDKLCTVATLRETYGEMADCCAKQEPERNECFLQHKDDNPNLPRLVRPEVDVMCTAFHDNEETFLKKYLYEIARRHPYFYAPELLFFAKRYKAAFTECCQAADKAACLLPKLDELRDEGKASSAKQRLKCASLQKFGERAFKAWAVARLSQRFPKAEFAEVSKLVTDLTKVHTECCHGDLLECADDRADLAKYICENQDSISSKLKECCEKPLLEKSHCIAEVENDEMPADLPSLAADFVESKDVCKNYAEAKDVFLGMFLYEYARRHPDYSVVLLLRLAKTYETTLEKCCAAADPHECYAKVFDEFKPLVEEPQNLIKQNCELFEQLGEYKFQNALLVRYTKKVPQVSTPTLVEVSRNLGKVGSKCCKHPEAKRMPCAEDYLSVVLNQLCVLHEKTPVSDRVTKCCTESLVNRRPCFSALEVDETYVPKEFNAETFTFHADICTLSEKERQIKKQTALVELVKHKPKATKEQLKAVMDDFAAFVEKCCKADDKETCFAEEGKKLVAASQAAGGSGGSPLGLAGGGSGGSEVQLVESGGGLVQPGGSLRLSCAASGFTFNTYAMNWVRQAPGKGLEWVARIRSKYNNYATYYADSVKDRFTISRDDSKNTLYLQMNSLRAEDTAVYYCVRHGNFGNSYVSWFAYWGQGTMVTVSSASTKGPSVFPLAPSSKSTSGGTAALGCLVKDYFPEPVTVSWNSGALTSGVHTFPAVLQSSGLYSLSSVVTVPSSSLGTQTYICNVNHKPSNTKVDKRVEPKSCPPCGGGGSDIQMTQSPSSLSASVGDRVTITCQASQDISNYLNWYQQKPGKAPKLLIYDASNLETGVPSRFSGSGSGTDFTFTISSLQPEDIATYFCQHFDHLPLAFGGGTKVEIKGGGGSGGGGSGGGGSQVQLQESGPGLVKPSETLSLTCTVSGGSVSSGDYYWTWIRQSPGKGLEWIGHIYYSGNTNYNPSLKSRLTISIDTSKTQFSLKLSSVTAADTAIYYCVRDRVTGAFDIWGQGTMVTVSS
light: QDGNEEMGGITQTPYKVSISGTTVILTGGSGGSPLGLAGGGSGGSQAVVTQEPSLTVSPGGTVTLTCRSSTGAVTTSNYANWVQQKPGQAPRGLIGGTNKRAPGTPARFSGSLLGGKAALTLSGVQPEDEAEYYCALWYSNLWVFGGGTKLTVLGQPKAAPSVTLFPPSSEELQANKATLVCLISDFYPGAVTVAWKADSSPVKAGVETTTPSKQSNNKYAASSYLSLTPEQWKSHRSYSCQVTHEGSTVEKTVAPTECPPCSGGGSDIQMTQSPSSLSASVGDRVTITCQASQDISNYLNWYQQKPGKAPKLLIYDASNLETGVPSRFSGSGSGTDFTFTISSLQPEDIATYFCQHFDHLPLAFGGGTKVEIKGGGGSGGGGSGGGGSQVQLQESGPGLVKPSETLSLTCTVSGGSVSSGDYYWTWIRQSPGKGLEWIGHIYYSGNTNYNPSLKSRLTISIDTSKTQFSLKLSSVTAADTAIYYCVRDRVTGAFDIWGQGTMVTVSS
notes: Uncleaved precursor, about 170 kDa; also called ProTriBody-C EGFR (VL-VH); Precursor Tri-body construct (VL-VH)
not listed: [5]
binds: all other assays above

B3: Construct 5: Precursor Tri-Specific Non-Cleavable (NC) Variable Light Variable Heavy (VLVH), anti-CD3epsilon Fab, two anti-EGFR scFv, HSA and CAP regulatory … (bispecific antibody)
heavy: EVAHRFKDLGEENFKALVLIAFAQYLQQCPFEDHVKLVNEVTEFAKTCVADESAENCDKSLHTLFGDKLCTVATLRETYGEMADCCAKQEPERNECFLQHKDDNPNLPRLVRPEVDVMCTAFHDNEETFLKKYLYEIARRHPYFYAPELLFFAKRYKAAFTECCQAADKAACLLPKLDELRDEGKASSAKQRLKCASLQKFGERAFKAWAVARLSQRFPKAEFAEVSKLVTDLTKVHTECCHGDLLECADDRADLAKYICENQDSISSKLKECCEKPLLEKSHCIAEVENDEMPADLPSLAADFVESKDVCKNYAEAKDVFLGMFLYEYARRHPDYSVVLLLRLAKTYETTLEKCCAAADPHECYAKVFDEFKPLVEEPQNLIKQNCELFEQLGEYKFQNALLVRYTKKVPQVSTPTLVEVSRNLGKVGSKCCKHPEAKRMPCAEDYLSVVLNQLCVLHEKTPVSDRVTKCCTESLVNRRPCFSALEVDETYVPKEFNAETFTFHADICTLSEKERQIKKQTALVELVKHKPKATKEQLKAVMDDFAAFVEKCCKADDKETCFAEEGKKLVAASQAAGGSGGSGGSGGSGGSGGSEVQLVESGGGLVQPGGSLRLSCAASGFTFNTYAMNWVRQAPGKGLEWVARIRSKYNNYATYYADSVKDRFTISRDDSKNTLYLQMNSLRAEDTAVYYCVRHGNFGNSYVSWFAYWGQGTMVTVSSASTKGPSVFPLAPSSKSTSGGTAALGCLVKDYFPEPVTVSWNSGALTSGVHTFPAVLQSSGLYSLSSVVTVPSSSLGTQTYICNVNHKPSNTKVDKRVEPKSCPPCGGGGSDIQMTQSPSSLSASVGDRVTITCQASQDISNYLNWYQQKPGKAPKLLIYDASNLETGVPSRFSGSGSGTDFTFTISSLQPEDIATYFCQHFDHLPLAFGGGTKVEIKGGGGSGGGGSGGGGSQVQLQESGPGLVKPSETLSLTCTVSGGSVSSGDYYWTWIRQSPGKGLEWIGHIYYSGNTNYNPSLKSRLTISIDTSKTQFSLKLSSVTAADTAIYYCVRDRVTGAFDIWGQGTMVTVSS
light: B2 light with P34G, L35G, G36S, L37G, A38G, G39S
notes: also called ProTriBody-NC EGFR (VL-VH); Non-Cleavable Precursor Tri-body construct (VL-VH)
not listed: [5]
binds: all other assays above

B4: Construct 4: Precursor Tri-Specific Construct Variable Heavy Variable Light (VHVL), anti-CD3epsilon Fab, two anti-EGFR scFv, HSA and CAP regulatory domains … (bispecific antibody)
heavy: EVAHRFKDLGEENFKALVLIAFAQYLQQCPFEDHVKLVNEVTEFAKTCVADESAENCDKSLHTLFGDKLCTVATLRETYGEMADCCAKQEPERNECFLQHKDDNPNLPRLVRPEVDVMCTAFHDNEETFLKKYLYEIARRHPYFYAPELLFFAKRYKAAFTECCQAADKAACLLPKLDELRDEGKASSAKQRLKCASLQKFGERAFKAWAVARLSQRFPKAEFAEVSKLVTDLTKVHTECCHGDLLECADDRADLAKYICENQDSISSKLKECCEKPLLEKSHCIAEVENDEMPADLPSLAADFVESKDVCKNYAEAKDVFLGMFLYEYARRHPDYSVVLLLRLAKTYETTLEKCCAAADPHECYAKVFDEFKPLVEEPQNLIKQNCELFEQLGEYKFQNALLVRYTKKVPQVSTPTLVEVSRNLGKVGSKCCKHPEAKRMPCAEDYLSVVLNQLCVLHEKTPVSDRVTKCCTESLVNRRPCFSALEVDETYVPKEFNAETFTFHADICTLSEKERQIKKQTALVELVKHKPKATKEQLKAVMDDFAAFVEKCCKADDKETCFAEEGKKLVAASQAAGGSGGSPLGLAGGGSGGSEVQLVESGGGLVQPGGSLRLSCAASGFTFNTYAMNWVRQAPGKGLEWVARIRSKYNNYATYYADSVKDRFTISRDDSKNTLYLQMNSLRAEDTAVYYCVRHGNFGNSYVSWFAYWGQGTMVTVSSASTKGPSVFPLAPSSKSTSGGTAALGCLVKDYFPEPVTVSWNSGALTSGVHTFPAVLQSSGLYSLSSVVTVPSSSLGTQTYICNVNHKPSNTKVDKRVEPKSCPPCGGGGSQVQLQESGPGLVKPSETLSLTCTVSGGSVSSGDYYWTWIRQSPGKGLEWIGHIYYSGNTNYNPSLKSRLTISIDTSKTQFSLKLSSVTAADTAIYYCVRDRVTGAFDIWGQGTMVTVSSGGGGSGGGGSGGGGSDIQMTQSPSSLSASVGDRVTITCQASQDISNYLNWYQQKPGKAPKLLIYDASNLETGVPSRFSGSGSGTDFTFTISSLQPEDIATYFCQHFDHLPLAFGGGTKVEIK
light: QDGNEEMGGITQTPYKVSISGTTVILTGGSGGSPLGLAGGGSGGSQAVVTQEPSLTVSPGGTVTLTCRSSTGAVTTSNYANWVQQKPGQAPRGLIGGTNKRAPGTPARFSGSLLGGKAALTLSGVQPEDEAEYYCALWYSNLWVFGGGTKLTVLGQPKAAPSVTLFPPSSEELQANKATLVCLISDFYPGAVTVAWKADSSPVKAGVETTTPSKQSNNKYAASSYLSLTPEQWKSHRSYSCQVTHEGSTVEKTVAPTECPPCSGGGSQVQLQESGPGLVKPSETLSLTCTVSGGSVSSGDYYWTWIRQSPGKGLEWIGHIYYSGNTNYNPSLKSRLTISIDTSKTQFSLKLSSVTAADTAIYYCVRDRVTGAFDIWGQGTMVTVSSGGGGSGGGGSGGGGSDIQMTQSPSSLSASVGDRVTITCQASQDISNYLNWYQQKPGKAPKLLIYDASNLETGVPSRFSGSGSGTDFTFTISSLQPEDIATYFCQHFDHLPLAFGGGTKVEIK
notes: Uncleaved precursor (no MMP9 treatment); also called ProTriBody-C (VHVL); Pro-Tribody-C (VHVL)
binds: [1] | [2]

B5: Construct 6: Precursor Tri-Specific Non-Cleavable (NC) Variable Heavy Variable Light (VHVL), anti-CD3epsilon Fab, two anti-EGFR scFv, HSA and CAP regulatory … (bispecific antibody)
heavy: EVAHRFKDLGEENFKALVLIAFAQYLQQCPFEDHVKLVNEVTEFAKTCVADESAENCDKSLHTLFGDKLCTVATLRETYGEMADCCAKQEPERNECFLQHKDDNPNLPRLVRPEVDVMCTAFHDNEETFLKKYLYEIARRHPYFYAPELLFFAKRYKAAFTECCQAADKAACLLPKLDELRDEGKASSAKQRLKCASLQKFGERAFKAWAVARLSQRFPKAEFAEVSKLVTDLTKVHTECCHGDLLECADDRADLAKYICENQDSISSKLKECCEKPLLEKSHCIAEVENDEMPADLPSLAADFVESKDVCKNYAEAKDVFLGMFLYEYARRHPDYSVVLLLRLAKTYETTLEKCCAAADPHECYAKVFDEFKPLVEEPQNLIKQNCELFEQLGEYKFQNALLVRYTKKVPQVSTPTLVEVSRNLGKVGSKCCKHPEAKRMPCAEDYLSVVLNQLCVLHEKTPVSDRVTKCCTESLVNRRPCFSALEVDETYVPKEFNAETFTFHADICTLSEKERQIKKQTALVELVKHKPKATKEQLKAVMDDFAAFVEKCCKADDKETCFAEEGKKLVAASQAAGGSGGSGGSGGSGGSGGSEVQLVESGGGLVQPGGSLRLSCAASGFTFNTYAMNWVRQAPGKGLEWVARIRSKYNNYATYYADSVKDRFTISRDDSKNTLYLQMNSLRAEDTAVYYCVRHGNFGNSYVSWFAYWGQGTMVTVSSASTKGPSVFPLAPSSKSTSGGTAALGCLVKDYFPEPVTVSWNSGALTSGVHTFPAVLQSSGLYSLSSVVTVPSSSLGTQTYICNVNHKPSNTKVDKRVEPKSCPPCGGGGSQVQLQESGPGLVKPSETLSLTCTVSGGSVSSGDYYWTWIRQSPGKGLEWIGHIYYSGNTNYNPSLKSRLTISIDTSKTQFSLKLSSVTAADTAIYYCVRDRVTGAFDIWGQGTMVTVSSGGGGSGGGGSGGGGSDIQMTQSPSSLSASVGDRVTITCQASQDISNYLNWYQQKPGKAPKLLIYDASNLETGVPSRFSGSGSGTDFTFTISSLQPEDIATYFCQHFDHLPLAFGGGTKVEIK
light: B4 light with P34G, L35G, G36S, L37G, A38G, G39S
notes: Not cleaved by MMP9, so the same molecule stands in the assays with and without MMP9; also called ProTriBody-NC (VHVL); Pro-Tribody-NC (VHVL)
binds: [1] | [2]

B6: Construct 2: Tri-Specific variable heavy chain-variable light chain (VHVL), anti-CD3epsilon Fab with two anti-EGFR scFv (VH-VL), no regulatory domains (bispecific antibody)
heavy: GGSGGSEVQLVESGGGLVQPGGSLRLSCAASGFTFNTYAMNWVRQAPGKGLEWVARIRSKYNNYATYYADSVKDRFTISRDDSKNTLYLQMNSLRAEDTAVYYCVRHGNFGNSYVSWFAYWGQGTMVTVSSASTKGPSVFPLAPSSKSTSGGTAALGCLVKDYFPEPVTVSWNSGALTSGVHTFPAVLQSSGLYSLSSVVTVPSSSLGTQTYICNVNHKPSNTKVDKRVEPKSCPPCGGGGSQVQLQESGPGLVKPSETLSLTCTVSGGSVSSGDYYWTWIRQSPGKGLEWIGHIYYSGNTNYNPSLKSRLTISIDTSKTQFSLKLSSVTAADTAIYYCVRDRVTGAFDIWGQGTMVTVSSGGGGSGGGGSGGGGSDIQMTQSPSSLSASVGDRVTITCQASQDISNYLNWYQQKPGKAPKLLIYDASNLETGVPSRFSGSGSGTDFTFTISSLQPEDIATYFCQHFDHLPLAFGGGTKVEIK
light: GGSGGSQAVVTQEPSLTVSPGGTVTLTCRSSTGAVTTSNYANWVQQKPGQAPRGLIGGTNKRAPGTPARFSGSLLGGKAALTLSGVQPEDEAEYYCALWYSNLWVFGGGTKLTVLGQPKAAPSVTLFPPSSEELQANKATLVCLISDFYPGAVTVAWKADSSPVKAGVETTTPSKQSNNKYAASSYLSLTPEQWKSHRSYSCQVTHEGSTVEKTVAPTECPPCSGGGSQVQLQESGPGLVKPSETLSLTCTVSGGSVSSGDYYWTWIRQSPGKGLEWIGHIYYSGNTNYNPSLKSRLTISIDTSKTQFSLKLSSVTAADTAIYYCVRDRVTGAFDIWGQGTMVTVSSGGGGSGGGGSGGGGSDIQMTQSPSSLSASVGDRVTITCQASQDISNYLNWYQQKPGKAPKLLIYDASNLETGVPSRFSGSGSGTDFTFTISSLQPEDIATYFCQHFDHLPLAFGGGTKVEIK
notes: Heterodimer of one HC and one LC polypeptide, no Fc; also called TriBody (VHVL); Tribody (VHVL)
binds: all assays above
